Data reported in paper doi:10.1101/2024.03.19.585385 (bioRxiv, 2024).

Target: T1, RNAP α subunit (αI) (T. thermophilus, UniProt Q5SHR6 1-315)
T1 sequence (looked up): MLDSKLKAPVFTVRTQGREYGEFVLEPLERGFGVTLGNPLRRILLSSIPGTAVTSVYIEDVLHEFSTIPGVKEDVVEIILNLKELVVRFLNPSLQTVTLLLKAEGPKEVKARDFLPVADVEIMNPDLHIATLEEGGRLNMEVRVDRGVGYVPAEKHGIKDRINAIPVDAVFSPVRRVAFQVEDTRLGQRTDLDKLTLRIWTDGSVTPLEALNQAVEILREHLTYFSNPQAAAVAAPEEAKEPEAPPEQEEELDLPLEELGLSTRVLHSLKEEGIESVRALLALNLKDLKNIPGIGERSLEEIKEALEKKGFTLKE
Assay: cryo-EM structure

B1: ribosomal protein S10 (NusE) (natural protein, T. thermophilus, UniProt Q5SHN7 1-105, looked up)
chain: MPKIRIKLRGFDHKTLDASAQKIVEAARRSGAQVSGPIPLPTRVRRFTVIRGPFKHKDSREHFELRTHNRLVDIINPNRKTIEQLMTLDLPTGVEIEIKTVGGGR
- binding result: binds
